According to paper PMC9287174:

Assays:
[1] = target: StayGold (CU17S/V168A) (Cytaeis uchidae); assay: pseudonative SDS-PAGE; non-heated protein samples separated on 10% polyacrylamide gels
[2] = target: StayGold (CU17S/V168A) (Cytaeis uchidae); assay: AUC; sedimentation equilibrium; purified recombinant StayGold at 2.8 uM in 50 mM HEPES-NaOH (pH 7.4), 24 C, absorbance at 497 nm

Substance: StayGold (CU17S/V168A) (natural protein)
- stoichiometry N [1]: 2
- stoichiometry N [2]: 2
